The record followed here is patent US20260265379A1.

The labels stand for the following.
B1: bsAb031 (bispecific antibody)
heavy: not shown
light: EIVLTQSPATLSLSPGERATLSCRASKGVSTSGYSYLHWYQQKPGQAPRLLIYLASYLESGVPARFSGSGSGTDFTLTISSLEPEDFAVYYCQHSRDLPLTFGGGTKVEIKRTVAAPSVFIFPPSDEQLKSGTASVVCLLNNFYPREAKVQWKVDNALQSGNSQESVTEQDSKDSTYSLSSTLTLSKADYEKHKVYACEVTHQGLSSPVTKSFNRGEC
B2: bsAb002 (bispecific antibody)
heavy: QVQLVQSGVEVKKPGASVKVSCKASGYTFTNYYMYWVRQAPGQGLEWMGGINPSNGGTNFNEKFKNRVTLTTDSSTTTAYMELKSLQFDDTAVYYCARRDYRFDMGFDYWGQGTTVTVSSASTKGPSVFPLAPSSKSTSGGTAALGCLVKDYFPEPVTVSWNSGALTSGVHTFPAVLQSSGLYSLSSVVTVPSSSLGTQTYICNVNHKPSNTKVDKRVEPKSCDKTHTCPPCPAPEFEGGPSVFLFPPKPKDTLMISRTPEVTCVVVDVSHEDPEVKFNWYVDGVEVHNAKTKPREEQYNSTYRVVSVLTVLHQDWLNGKEYKCKVSNKALPASIEKTISKAKGQPREPQVYTLPPSREEMTKNQVSLTCLVKGFYPSDIAVEWESNGQPENNYKTTPPVLDSDGSFFLYSKLTVDKSRWQQGNVFSCSVMHEALHNHYTQKSLSLSPGGGGGSGGGGSGGGGSGGGGSQVQLVQSGAEVKKPGASVKLSCKASGYIFTRYYMYWVKQRPGQGLEWIGEINPNNGGTKFNEKFKNRATLTVDKSISTAYMELSRLRSDDTAVYYCSREDDYDGTPFAMDYWGQGTLVTVSSGGGGSGGGGSGGGGSGGGGSDIQMTQSPSSLSASVGDRVTITCHASQNINVWLSWYQQKPGKAPKLLIYKASNLHTGVPSRFTGSGSGTDFTFTISSLQPEDIATYYCQQGQTYPYTFGQGTKLEIK
light: EIVLTQSPATLSLSPGERATLSCRASKGVSTSGYSYLHWYQQKPGQAPRLLIYLASYLESGVPARFSGSGSGTDFTLTISSLEPEDFAVYYCQHSRDLPLTFGGGTKVEIKRTVAAPSVFIFPPSDEQLKSGTASVVCLLNNFYPREAKVQWKVDNALQSGNSQESVTEQDSKDSTYSLSSTLTLSKADYEKHKVYACEVTHQGLSSPVTKSFNRGEC
B3: bsAb032 (bispecific antibody)
heavy: not shown
light: EIVLTQSPATLSLSPGERATLSCRASKGVSTSGYSYLHWYQQKPGQAPRLLIYLASYLESGVPARFSGSGSGTDFTLTISSLEPEDFAVYYCQHSRDLPLTFGGGTKVEIKRTVAAPSVFIFPPSDEQLKSGTASVVCLLNNFYPREAKVQWKVDNALQSGNSQESVTEQDSKDSTYSLSSTLTLSKADYEKHKVYACEVTHQGLSSPVTKSFNRGEC
B4: bsAb006 (bispecific antibody)
heavy: QVQLVQSGVEVKKPGASVKVSCKASGYTFTNYYMYWVRQAPGQGLEWMGGINPSNGGTNFNEKFKNRVTLTTDSSTTTAYMELKSLQFDDTAVYYCARRDYRFDMGFDYWGQGTTVTVSSASTKGPSVFPLAPSSKSTSGGTAALGCLVKDYFPEPVTVSWNSGALTSGVHTFPAVLQSSGLYSLSSVVTVPSSSLGTQTYICNVNHKPSNTKVDKRVEPKSCDKTHTCPPCPAPEFEGGPSVFLFPPKPKDTLMISRTPEVTCVVVDVSHEDPEVKFNWYVDGVEVHNAKTKPREEQYNSTYRVVSVLTVLHQDWLNGKEYKCKVSNKALPASIEKTISKAKGQPREPQVYTLPPSREEMTKNQVSLTCLVKGFYPSDIAVEWESNGQPENNYKTTPPVLDSDGSFFLYSKLTVDKSRWQQGNVFSCSVMHEALHNHYTQKSLSLSPGGGGGSGGGGSGGGGSGGGGSDIQMTQSPSSLSASVGDRVTITCHASQNINVWLSWYQQKPGKAPKLLIYKASNLHTGVPSRFTGSGSGTDFTFTISSLQPEDIATYYCQQGQTYPYTFGQGTKLEIKGGGGSGGGGSGGGGSGGGGSQVQLVQSGAEVKKPGASVKLSCKASGYIFTRYYMYWVKQRPGQGLEWIGEINPNNGGTKFNEKFKNRATLTVDKSISTAYMELSRLRSDDTAVYYCSREDDYDGTPFAMDYWGQGTLVTVSS
light: EIVLTQSPATLSLSPGERATLSCRASKGVSTSGYSYLHWYQQKPGQAPRLLIYLASYLESGVPARFSGSGSGTDFTLTISSLEPEDFAVYYCQHSRDLPLTFGGGTKVEIKRTVAAPSVFIFPPSDEQLKSGTASVVCLLNNFYPREAKVQWKVDNALQSGNSQESVTEQDSKDSTYSLSSTLTLSKADYEKHKVYACEVTHQGLSSPVTKSFNRGEC
B5: bsAb068 (bispecific antibody)
heavy: QVQLVQSGVEVKKPGASVKVSCKASGYTFTNYYMYWVRQAPGQGLEWMGGINPSNGGTNFNEKFKNRVTLTTDSSTTTAYMELKSLQFDDTAVYYCARRDYRFDMGFDYWGQGTTVTVSSASTKGPSVFPLAPSSKSTSGGTAALGCLVKDYFPEPVTVSWNSGALTSGVHTFPAVLQSSGLYSLSSVVTVPSSSLGTQTYICNVNHKPSNTKVDKRVEPKSCDKTHTCPPCPAPEFEGGPSVFLFPPKPKDTLMISRTPEVTCVVVDVSHEDPEVKFNWYVDGVEVHNAKTKPREEQYNSTYRVVSVLTVLHQDWLNGKEYKCKVSNKALPASIEKTISKAKGQPREPQVYTLPPSREEMTKNQVSLTCLVKGFYPSDIAVEWESNGQPENNYKTTPPVLDSDGSFFLYSKLTVDKSRWQQGNVFSCSVMHEALHNHYTQKSLSLSPG
light: not shown
B6: bsAb062 (bispecific antibody)
heavy: QVQLVQSGAEVKKPGASVKLSCKASGYIFTRYYMYWVKQRPGQGLEWIGEINPNNGGTKFNEKFKNRATLTVDKSISTAYMELSRLRSDDTAVYYCSREDDYDGTPFAMDYWGQGTLVTVSSASTKGPSVFPLAPSSKSTSGGTAALGCLVKDYFPEPVTVSWNSGALTSGVHTFPAVLQSSGLYSLSSVVTVPSSSLGTQTYICNVNHKPSNTKVDKRVEPKSCDKTHTCPPCPAPEFEGGPSVFLFPPKPKDTLMISRTPEVTCVVVDVSHEDPEVKFNWYVDGVEVHNAKTKPREEQYNSTYRVVSVLTVLHQDWLNGKEYKCKVSNKALPASIEKTISKAKGQPREPQVYTLPPSREEMTKNQVSLTCLVKGFYPSDIAVEWESNGQPENNYKTTPPVLDSDGSFFLYSKLTVDKSRWQQGNVFSCSVMHEALHNHYTQKSLSLSPG
light: not shown

The target of this assay is BTN3A expressed at the cell surface (human), O00481. The assay can be described thus: cell-based or functional assay.
Sequence of BTN3A expressed at the cell surface (human), O00481 (O00481 30-513): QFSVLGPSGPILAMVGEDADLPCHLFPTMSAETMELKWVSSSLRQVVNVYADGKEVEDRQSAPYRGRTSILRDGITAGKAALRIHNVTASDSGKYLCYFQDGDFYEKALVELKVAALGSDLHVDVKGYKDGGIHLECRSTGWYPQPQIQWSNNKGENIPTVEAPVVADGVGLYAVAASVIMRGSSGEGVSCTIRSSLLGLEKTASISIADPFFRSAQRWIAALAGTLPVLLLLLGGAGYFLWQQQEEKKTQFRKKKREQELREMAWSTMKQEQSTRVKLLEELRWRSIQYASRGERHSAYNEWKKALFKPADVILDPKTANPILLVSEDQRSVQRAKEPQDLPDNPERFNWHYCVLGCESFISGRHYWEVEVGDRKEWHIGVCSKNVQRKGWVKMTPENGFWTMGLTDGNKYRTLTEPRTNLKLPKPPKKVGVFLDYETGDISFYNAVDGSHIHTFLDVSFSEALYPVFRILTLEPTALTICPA
In turn, B1 had a Jurkat-Vy9Vo2 TCR MOP activation at 0.5 nM (fold-change to medium) of 1.8 and a Jurkat-Vy9Vo2 TCR MOP activation at 5 nM (fold-change to medium) of 2.2.

Turning to B2, the Jurkat-Vy9Vo2 TCR MOP activation at 0.5 nM (fold-change to medium) worked out at 1 and the Jurkat-Vy9Vo2 TCR MOP activation at 5 nM (fold-change to medium) was found to be 1.

B3 had a Jurkat-Vy9Vo2 TCR MOP activation at 0.5 nM (fold-change to medium) of 0.9 and a Jurkat-Vy9Vo2 TCR MOP activation at 5 nM (fold-change to medium) of 1.

Molecule B4 yielded a Jurkat-Vy9Vo2 TCR MOP activation at 0.5 nM (fold-change to medium) of 1 and a Jurkat-Vy9Vo2 TCR MOP activation at 5 nM (fold-change to medium) of 1.

Consider B5, for which the Jurkat-Vy9Vo2 TCR MOP activation at 0.5 nM (fold-change to medium) is 1.4 and the Jurkat-Vy9Vo2 TCR MOP activation at 5 nM (fold-change to medium) worked out at 1.6.

The molecule B6 gave a Jurkat-Vy9Vo2 TCR MOP activation at 0.5 nM (fold-change to medium) of 4.3 and a Jurkat-Vy9Vo2 TCR MOP activation at 5 nM (fold-change to medium) of 5.8.
